Measured values: US20020156245A1 (Genentech, published 2002)

T1: human Ptch-2 (SEQ ID NO:2) (human, UniProt Q9Y6C5 1-1203)
T1 construct: Its length is printed as 1203 residues in some places and 1204 in others; also called hPtch-2; patched-2
T1 sequence: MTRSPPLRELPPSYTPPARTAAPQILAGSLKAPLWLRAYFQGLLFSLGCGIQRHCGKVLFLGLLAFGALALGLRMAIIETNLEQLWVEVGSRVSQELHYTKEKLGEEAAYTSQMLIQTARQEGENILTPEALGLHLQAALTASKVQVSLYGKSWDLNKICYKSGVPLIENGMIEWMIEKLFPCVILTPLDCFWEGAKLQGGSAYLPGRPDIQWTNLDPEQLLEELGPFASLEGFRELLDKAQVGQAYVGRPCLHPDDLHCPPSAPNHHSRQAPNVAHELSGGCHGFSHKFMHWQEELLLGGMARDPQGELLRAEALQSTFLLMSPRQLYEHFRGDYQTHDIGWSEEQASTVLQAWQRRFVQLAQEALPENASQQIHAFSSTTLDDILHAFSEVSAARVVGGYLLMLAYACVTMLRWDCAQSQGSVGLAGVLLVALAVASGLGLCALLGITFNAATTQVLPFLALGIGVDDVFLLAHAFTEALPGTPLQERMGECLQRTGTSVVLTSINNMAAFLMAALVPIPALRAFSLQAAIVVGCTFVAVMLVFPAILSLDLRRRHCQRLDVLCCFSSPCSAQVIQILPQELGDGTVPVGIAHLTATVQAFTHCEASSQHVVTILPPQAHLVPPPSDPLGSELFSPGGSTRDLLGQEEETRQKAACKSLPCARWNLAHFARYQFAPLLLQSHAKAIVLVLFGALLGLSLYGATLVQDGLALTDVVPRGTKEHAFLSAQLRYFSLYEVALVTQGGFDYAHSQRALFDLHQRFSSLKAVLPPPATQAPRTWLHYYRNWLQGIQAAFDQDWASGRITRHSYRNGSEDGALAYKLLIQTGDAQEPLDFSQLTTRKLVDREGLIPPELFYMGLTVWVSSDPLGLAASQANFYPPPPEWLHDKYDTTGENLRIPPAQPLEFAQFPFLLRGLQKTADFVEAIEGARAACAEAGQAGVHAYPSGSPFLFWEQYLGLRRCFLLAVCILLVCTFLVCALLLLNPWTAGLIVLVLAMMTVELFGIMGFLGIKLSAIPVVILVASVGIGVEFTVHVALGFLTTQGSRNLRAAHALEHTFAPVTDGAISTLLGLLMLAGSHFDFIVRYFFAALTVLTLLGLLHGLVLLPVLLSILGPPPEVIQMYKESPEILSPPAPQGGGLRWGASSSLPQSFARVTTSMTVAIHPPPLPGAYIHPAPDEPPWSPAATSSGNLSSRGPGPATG

B1: Ihh (SEQ ID NO:29) (ligand)
chain: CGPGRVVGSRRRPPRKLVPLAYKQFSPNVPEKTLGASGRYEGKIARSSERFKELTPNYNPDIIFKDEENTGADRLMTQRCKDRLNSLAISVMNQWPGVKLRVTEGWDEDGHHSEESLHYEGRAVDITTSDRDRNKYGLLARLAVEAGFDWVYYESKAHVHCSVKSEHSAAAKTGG
notes: also called Indian Hh
B2: Dhh (SEQ ID NO:13) (ligand)
chain: not shown
notes: also called Desert Hh; Desert hedgehog

Biological target: T1, human Ptch-2 (SEQ ID NO:2)
Experiment: Scatchard analysis of displacement of 125I-Shh from 293 cells expressing Ptch-2
Protocol: As shown on FIG. 7A, binding of ¹²⁵I-Shh can be competed with an excess of Shh, Dhh or Ihh (SEQ ID NOS: 14, 13, and 29, respectively).
To determine whether Ptch-2 is able to bind to the various hedgehog ligands, 293 cells were transfected with Ptch (SEQ ID NO:4) or Ptch-2 (SEQ ID NO:2) using standard procedures. Cells were incubated with 100 pM ¹²⁵I-Shh (19 kD amino terminal fragment of murine Shh (SEQ ID NO:14)) in the presence or absence of excess unlabeled Shh (SEQ ID NO:14) or Dhh (SEQ ID NO:13) for 2 h at room temperature. After equilibrium was reached, the ligand bound cells were centrifuged through a continuous sucrose gradient to separate unincorporated and then counted in a scintillation counter. […] Varying concentrations of cold competitor indicate that the 2 ligands have similar affinity for Ptch (SEQ ID NO:4) and Ptch-2 (SEQ ID NO:2).

Kd	Binder
0.4 nM	B1
0.6 nM	B2
